In the supplement of paper PMC5998384:

How the values were obtained:
HeLa Kyoto [1] = assay: solubility in G1/S (NP-40 vs SDS abundance) (log2 ratio); higher = more soluble; details: cell cycle stage: G1/S
HeLa Kyoto [2] = assay: solubility change mitosis vs G1/S (difference of NP-40 vs SDS log2 ratios) (log2 ratio difference); higher = more soluble in mitosis
HeLa Kyoto [3] = assay: thermal stability score vs G1/S (z-score of summed log2 fold changes over temperatures); higher = more thermally stable than in G1/S
HeLa Kyoto [4] = assay: melting temperature (median over replicates), in situ; higher = more thermally stable
[5] = cell cycle stage: early G1 (4.5 h after nocodazole release)
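Throughout, for melting temperature (median over replicates), in situ: HeLa Kyoto cells synchronized by double thymidine or nocodazole block, proteins quantified by TMT10plex mass spectrometry, three independent biological replicates.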
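Throughout, for solubility change mitosis vs G1/S (difference of NP-40 vs SDS log2 ratios): synchronized HeLa Kyoto cells (double thymidine block for G1/S, nocodazole release for mitosis), protein amounts in NP-40 versus SDS lysates quantified by mass spectrometry, three biological replicates.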
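Throughout, for solubility in G1/S (NP-40 vs SDS abundance): HeLa Kyoto cells arrested at G1/S by double thymidine block, proteins quantified by TMT10plex mass spectrometry in mild NP-40 versus SDS extracts, three biological replicates.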
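Throughout, for thermal stability score vs G1/S (z-score of summed log2 fold changes over temperatures): synchronized HeLa Kyoto cells, proteins quantified by TMT10plex mass spectrometry, three biological replicates, mitosis taken 0.5 h after nocodazole release, G1/S directly after double thymidine block.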

Sequence	solubility in G1/S (log2) (HeLa Kyoto [1])	solubility change mitosis (log2) (HeLa Kyoto [2])	thermal stability score (HeLa Kyoto [3]; [5])	thermal stability score (HeLa Kyoto [3]; cell cycle stage: mitosis)	melting temperature (HeLa Kyoto [4]; cell cycle stage: G1/S) [°C]	melting temperature (HeLa Kyoto [4]; cell cycle stage: mitosis) [°C]
MGEIEQRPTPGSRLGAPENSGISTLERGQKPPPTPSGKLVSIKIQMLDDTQEAFEVPQRAPGKVLLDAVCNHLNLVEGDYFGLEFPDHKKITVWLDLLKPIVKQIRRPKHVVVKFVVKFFPPDHTQLQEELTRYLFALQVKQDLAQGRLTCNDTSAALLISHIVQSEIGDFDEALDREHLAKNKYIPQQDALEDKIVEFHHNHIGQTPAESDFQLLEIARRLEMYGIRLHPAKDREGTKINLAVANTGILVFQGFTKINAFNWAKVRKLSFKRKRFLIKLRPDANSAYQDTLEFLMASRDFCKSFWKICVEHHAFFRLFEEPKPKPKPVLFSRGSSFRFSGRTQKQVLDYVKEGGHKKVQFERKHSKIHSIRSLASQPTELNSEVLEQSQQSTSLTFGEGAESPGGQSCRRGKEPKVSAGEPGSHPSPAPRRSPAGNKQADGAASAPTEEEEEVVKDRTQQSKPQPPQPSTGSLTGSPHLSELSVNSQGGVAPANVTLSPNLSPDTKQASPLISPLLNDQACPRTDDEDEGRRKRFPTDKAYFIAKEVSTTERTYLKDLEVITSWFQSTVSKEDAMPEALKSLIFPNFEPLHKFHTNFLKEIEQRLALWEGRSNAQIRDYQRIGDVMLKNIQGMKHLAAHLWKHSEALEALENGIKSSRRLENFCRDFELQKVCYLPLNTFLLRPLHRLMHYKQVLERLCKHHPPSHADFRDCRAALAEITEMVAQLHGTMIKMENFQKLHELKKDLIGIDNLVVPGREFIRLGSLSKLSGKGLQQRMFFLFNDVLLYTSRGLTASNQFKVHGQLPLYGMTIEESEDEWGVPHCLTLRGQRQSIIVAASSRSEMEKWVEDIQMAIDLAEKSSSPAPEFLASSPPDNKSPDEATAADQESEDDLSASRTSLERQAPHRGNTMVHVCWHRNTSVSMVDFSIAVENQLSGNLLRKFKNSNGWQKLWVVFTNFCLFFYKSHQDNHPLASLPLLGYSLTIPSESENIQKDYVFKLHFKSHVYYFRAESEYTFERWMEVIRSATSSASRPHVLSHKESLVY [FARP1]	-0.198	-0.0824	1.1	2.25	49.2	49.1
MGFLQLLVVAVLASEHRVAGAAEVFGNSSEGLIEFSVGKFRYFELNRPFPEEAILHDISSNVTFLIFQIHSQYQNTTVSFSPTLLSNSSETGTASGLVFILRPEQSTCTWYLGTSGIQPVQNMAILLSYSERDPVPGGCNLEFDLDIDPNIYLEYNFFETTIKFAPANLGYARGVDPPPCDAGTDQDSRWRLQYDVYQYFLPENDLTEEMLLKHLQRMVSVPQVKASALKVVTLTANDKTSVSFSSLPGQGVIYNVIVWDPFLNTSAAYIPAHTYACSFEAGEGSCASLGRVSSKVFFTLFALLGFFICFFGHRFWKTELFFIGFIIMGFFFYILITRLTPIKYDVNLILTAVTGSVGGMFLVAVWWRFGILSICMLCVGLVLGFLISSVTFFTPLGNLKIFHDDGVFWVTFSCIAILIPVVFMGCLRILNILTCGVIGSYSVVLAIDSYWSTSLSYITLNVLKRALNKDFHRAFTNVPFQTNDFIILAVWGMLAVSGITLQIRRERGRPFFPPHPYKLWKQERERRVTNILDPSYHIPPLRERLYGRLTQIKGLFQKEQPAGERTPLLL [TM7SF3]	-0.147	-0.244	-2.81	-4.36	56.8	55.3
MGGAVVDEGPTGVKAPDGGWGWAVLFGCFVITGFSYAFPKAVSVFFKELIQEFGIGYSDTAWISSILLAMLYGTGPLCSVCVNRFGCRPVMLVGGLFASLGMVAASFCRSIIQVYLTTGVITGLGLALNFQPSLIMLNRYFSKRRPMANGLAAAGSPVFLCALSPLGQLLQDRYGWRGGFLILGGLLLNCCVCAALMRPLVVTAQPGSGPPRPSRRLLDLSVFRDRGFVLYAVAASVMVLGLFVPPVFVVSYAKDLGVPDTKAAFLLTILGFIDIFARPAAGFVAGLGKVRPYSVYLFSFSMFFNGLADLAGSTAGDYGGLVVFCIFFGISYGMVGALQFEVLMAIVGTHKFSSAIGLVLLMEAVAVLVGPPSGGKLLDATHVYMYVFILAGAEVLTSSLILLLGNFFCIRKKPKEPQPEVAAAEEEKLHKPPADSGVDLREVEHFLKAEPEKNGEVVHTPETSV [SLC16A3]	0.106	-0.161	-4.29	-4.22	60.1	61.9
MGGFFSSIFSSLFGTREMRILILGLDGAGKTTILYRLQVGEVVTTIPTIGFNVETVTYKNLKFQVWDLGGQTSIRPYWRCYYSNTDAVIYVVDSCDRDRIGISKSELVAMLEEEELRKAILVVFANKQDMEQAMTSSEMANSLGLPALKDRKWQIFKTSATKGTGLDEAMEWLVETLKSRQ [ARL1]	-0.143	-0.202	2.08	-0.342	50.3	50.9
